T1: SKP1-8611 (Nannochloropsis Skp1 protein) (Nannochloropsis gaditana)
T1 construct: also called SKP-8611
T1 chain: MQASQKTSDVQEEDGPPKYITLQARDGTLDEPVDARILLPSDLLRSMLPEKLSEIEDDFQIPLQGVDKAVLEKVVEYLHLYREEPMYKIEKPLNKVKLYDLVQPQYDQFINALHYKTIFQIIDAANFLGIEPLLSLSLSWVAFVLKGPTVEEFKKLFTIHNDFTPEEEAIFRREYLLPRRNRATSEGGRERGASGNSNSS

T2: Skp1-7479 (Nannochloropsis Skp1 protein, genome locus Naga_100005 g56) (Nannochloropsis gaditana)
T2 construct: also called SKP-7479
T2 chain: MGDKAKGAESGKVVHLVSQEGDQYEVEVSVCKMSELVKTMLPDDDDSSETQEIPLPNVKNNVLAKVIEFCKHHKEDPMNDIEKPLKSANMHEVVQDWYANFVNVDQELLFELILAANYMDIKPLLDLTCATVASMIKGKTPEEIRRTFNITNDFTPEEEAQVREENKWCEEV

B1: CRD1-117 (fragment of CHORD-3266 protein, amino acids 1-117) (other)
chain: MKLYVHYEEAGQDEKALTLKLTLPKSWAEQPLLQVLELFIESYNKKKTGLPPLDKDFVHMEKAGGVILPVGNIVSDMLSDRDDLYIRSGPGPARGKIAHLSSPPNAHASSESSTGLL
notes: Used as bait in the yeast two-hybrid screen, cloned into bait vector pGBKT7 (Clontech); also called CHORD domain fragment 1-117
B2: SGT1 (suppressor of G2 allele of skp1), Nannochloropsis gaditana, genome locus Naga_100120 g12 (other)
chain: MEQAQLAFMDEDYATADELFSAYIATHPDDATALVSRAAVHLKLNQPSQALHDAEAAASLKSDFEVAWYRQGVAAFALEDFSRAKEAFMRGRALLGDRPEPQGRRYDVWLRKTTLELGEHDEQGMTVVAEGGRKELRQEEGAKGIEATVPRSQPSPTHPPSSAPAIPAGHVKFQFYQTTSYVTVTILYKGLREEDANVSVQPRHLKVSVGADGDVLFDRALFETVVPEESTSKIFATKIEVKLRKAMEGLTWPELCALSPGAAASVHTVSAPTPDSHATALPSLAQGPATAPSSKPLRPYASTKDWGAVEKEISKELESEKPEGDEALNTLFRDIYAKGSDETRRAMVKSFQTSGGTVLSTNWEEVGKKDYEKEEERKAPEGMEWRKWGV
notes: also called Nannochloropsis SGT1; gene 1852

Tests used:
[1] = target: B2; assay: yeast two-hybrid screen, CRD1-117 bait against Nannochloropsis cDNA prey library; growth and blue color on selective media
Method: The prey library was screened for by mating of the library-containing (prey) strain with each individual bait strain (i.e., a strain expressing CRD1-117) according to the Matchmaker™ Gold Yeast Two-Hybrid System User Manual (Clontech). […] Based on these numbers, it is estimated that more than 10 million interactions were tested.
After subtraction of false positives from the other domain hits, one hit remained which was unique to this domain: the gene encoding SGT1 (SEQ ID NO:27) encoded at N. gaditana genome locus Naga_100120 g12; Genbank Accession AZIL01000354.1. This gene is commonly referred to as “suppressor of G2 allele of skp1” because it was discovered in a genetic suppressor screen aimed at suppressing skp1-4, a mutant with defects in yeast kinetochore function (Hieter et al. 1999 Nature 402:362-363). SGT1 is an essential component of the yeast kinetochore assembly pathway and has been associated to a number of different biological roles in different organisms. Furthermore, mammalian SGT1 is known to interact with an Hsp90 chaperone and melusin, the human homolog of CHORD-3266. Similarly, the Arabidopsis CHORD-3266 homolog, RAR1, is also known to bind Arabidopsis SGT1 (Takahashi et al. (2003) PNAS USA 100:11777-11782). […]

[2] = target: T1, SKP1-8611 (Nannochloropsis Skp1 protein); assay: direct yeast two-hybrid assay
From the text: (§1) In order to determine whether SGT1 (SEQ ID NO:27) and Skp1 were members of the same pathway, we tested whether Nannochloropsis SGT1 was capable of binding to Nannochloropsis Skp1 by Y2H. Two different Skp1 proteins were identified in Nannochloropsis, SKP1-8611 (polynucleotide SEQ ID NO:9 and polypeptide SEQ ID NO:28) and Skp1-7479 (SEQ ID NO:29 encoded at N. gaditana genome locus Naga_100005 g56, Genbank Accession AZIL01000936). Protein coding sequences were amplified using sequence specific primers for SGT1 (SEQ ID NO:30 and SEQ ID NO:31), SKP-8611 (SEQ ID NO:32 and SEQ ID NO:33), and SKP-7479 (SEQ ID NO:34 and SEQ ID NO:35) and cloned into the prey and bait vectors as described above.

[3] = target: T2, Skp1-7479 (Nannochloropsis Skp1 …); assay: direct yeast two-hybrid assay
From the text: as §1

binding result [1]	binding result [2]	binding result [3]	Binder
binds	–	–	B1
–	binds	binds	B2
